# Reference: patent publication US20030108545A1
# Where “and” joins values, the source holds several entries; their conditions need not be identical. Equal values may be shown once. Read-outs that look alike come from different tables or passages of the source.
# B1: anti-KDR (VEGFR-2) single chain antibody scFv p1C11 (scFv, from a related filing, not shown: small tags and cut ends)
# scFv: QVKLQQSGAELVGSGASVKLSCTTSGFNIKDFYMHWVKQRPEQGLEWIGWIDPENGDSDYAPKFQGKATMTADSSSNTAYLQLSSLTSEDTAVYYCNAYYGDYEGYWGQGTTVTVSSGGGGSGGGGSGGGGSDIELTQSPAIMSASPGEKVTITCSASSSVSYMHWFQQKPGTSPKLWIYSTSNLASGVPARFSGSGSGTSYSLTISRMEAEDAATYYCQQRSSYPFTFGSGTKLEIK
# B2: rat anti-mouse flk-1 (VEGFR-2) monoclonal antibody DC-101 (antibody, from another filing, V domains shown)
# VH: EVQLVETGGGLVQPGNSLKLSCATSGFIFSTTWMNWIRQTPGKRLEWLAQIEDKSNNYFISYSESVKGRFTISRDDSKSSVYLQMNNLKEEDTAIYYCSWKYRSNYYFDYWGQGVMVTVSS
# VL: DIVLTQSPALAVSLEQRATISCKTSQNVDYYGISYLHWYQQKPGQQPKLLIYEGSNLASGIPARFSGSGSGTDFTLTIDPVEADDIVTYYCQQSKDYPYTFGAGTKLELKR
# Columns and labels:
# [1] = molecular target: KDR (VEGFR-2) expressed on the surface of HUVEC (human) (UniProt P35968); assay: cell-based or functional assay
# [2] = molecular target: soluble fusion protein KDR-AP (KDR (VEGFR-2) extracellular domain fused to human placental alkaline phosphatase) (human) (UniProt P35968); assay: BIAcore, KDR-AP immobilized
# [3] = molecular target: soluble fusion protein KDR-AP (KDR (VEGFR-2) extracellular domain fused to human placental alkaline phosphatase) (human) (UniProt P35968); assay: BIAcore, KDR-AP immobilized; remark: listed apart in the source
# [4] = molecular target: soluble fusion protein KDR-AP (KDR (VEGFR-2) extracellular domain fused to human placental alkaline phosphatase) (human) (UniProt P35968); assay: competitive ELISA: KDR-AP binding to immobilized VEGF165
# [5] = molecular target: soluble fusion protein KDR-AP (KDR (VEGFR-2) extracellular domain fused to human placental alkaline phosphatase) (human) (UniProt P35968); assay: competitive VEGF blocking ELISA: KDR-AP binding to immobilized VEGF165
# [6] = molecular target: human KDR (VEGFR-2), immobilized on ELISA plates (construct not stated) (human) (UniProt P35968); assay: direct binding ELISA on KDR-coated plates (ED50, 50% of maximum binding)
# [7] = molecular target: human KDR (VEGFR-2), immobilized on ELISA plates (construct not stated) (human) (UniProt P35968); assay: direct binding ELISA on KDR-coated plates, anti-E tag-HRP detection
# [8] = molecular target: chimeric receptor mouse flk-1 (VEGFR-2)/human fms on transfected 3T3 cells (C441) (mouse; human) (UniProt P35918); assay: cell-based or functional assay
# [9] = molecular target: chimeric receptor mouse flk-1 (VEGFR-2)/human fms on transfected 3T3 cells (C441) (mouse; human) (UniProt P35918); assay: saturation binding to intact C441 cells, colorimetric detection (FIG. 7)
# [10] = scale: % of the fully stimulated receptor control
# Sequence of soluble fusion protein KDR-AP (KDR (VEGFR-2) extracellular domain fused to human placental alkaline phosphatase) (human) (P35968 other isoform, or with tags, fused parts or gaps): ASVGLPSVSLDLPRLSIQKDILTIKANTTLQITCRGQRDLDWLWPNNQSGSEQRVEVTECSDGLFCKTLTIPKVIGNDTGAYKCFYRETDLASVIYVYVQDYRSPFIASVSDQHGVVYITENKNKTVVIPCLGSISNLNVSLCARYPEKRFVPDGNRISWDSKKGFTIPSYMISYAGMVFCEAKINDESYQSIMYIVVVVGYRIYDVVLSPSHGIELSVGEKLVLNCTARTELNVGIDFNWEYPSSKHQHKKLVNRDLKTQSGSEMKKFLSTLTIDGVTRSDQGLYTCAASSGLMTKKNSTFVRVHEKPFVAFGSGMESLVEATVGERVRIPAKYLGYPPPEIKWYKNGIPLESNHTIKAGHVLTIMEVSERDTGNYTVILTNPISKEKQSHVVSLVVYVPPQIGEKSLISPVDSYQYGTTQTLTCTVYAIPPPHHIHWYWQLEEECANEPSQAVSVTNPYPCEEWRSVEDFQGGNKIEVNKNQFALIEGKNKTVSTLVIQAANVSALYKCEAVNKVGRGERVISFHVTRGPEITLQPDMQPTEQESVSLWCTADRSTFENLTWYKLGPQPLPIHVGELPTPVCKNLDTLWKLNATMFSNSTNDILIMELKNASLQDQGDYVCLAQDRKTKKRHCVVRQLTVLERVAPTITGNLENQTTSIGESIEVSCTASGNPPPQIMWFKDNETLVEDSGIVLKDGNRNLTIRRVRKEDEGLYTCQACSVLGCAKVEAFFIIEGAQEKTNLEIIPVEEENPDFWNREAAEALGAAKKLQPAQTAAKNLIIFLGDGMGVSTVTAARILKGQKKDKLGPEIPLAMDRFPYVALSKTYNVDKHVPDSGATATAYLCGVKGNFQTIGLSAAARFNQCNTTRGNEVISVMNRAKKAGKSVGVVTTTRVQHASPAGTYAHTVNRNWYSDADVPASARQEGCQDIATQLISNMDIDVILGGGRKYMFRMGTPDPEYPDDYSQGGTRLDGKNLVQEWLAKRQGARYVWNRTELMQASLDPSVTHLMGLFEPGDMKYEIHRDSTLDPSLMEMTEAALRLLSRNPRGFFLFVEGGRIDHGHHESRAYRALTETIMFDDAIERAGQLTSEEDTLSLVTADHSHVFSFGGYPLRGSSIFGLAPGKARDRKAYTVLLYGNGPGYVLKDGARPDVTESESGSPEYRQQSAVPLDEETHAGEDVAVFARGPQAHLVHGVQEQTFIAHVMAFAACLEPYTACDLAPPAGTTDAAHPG
# Sequence of chimeric receptor mouse flk-1 (VEGFR-2)/human fms on transfected 3T3 cells (C441) (mouse; human) (P35918 other isoform, or with tags, fused parts or gaps mutant limits assumed): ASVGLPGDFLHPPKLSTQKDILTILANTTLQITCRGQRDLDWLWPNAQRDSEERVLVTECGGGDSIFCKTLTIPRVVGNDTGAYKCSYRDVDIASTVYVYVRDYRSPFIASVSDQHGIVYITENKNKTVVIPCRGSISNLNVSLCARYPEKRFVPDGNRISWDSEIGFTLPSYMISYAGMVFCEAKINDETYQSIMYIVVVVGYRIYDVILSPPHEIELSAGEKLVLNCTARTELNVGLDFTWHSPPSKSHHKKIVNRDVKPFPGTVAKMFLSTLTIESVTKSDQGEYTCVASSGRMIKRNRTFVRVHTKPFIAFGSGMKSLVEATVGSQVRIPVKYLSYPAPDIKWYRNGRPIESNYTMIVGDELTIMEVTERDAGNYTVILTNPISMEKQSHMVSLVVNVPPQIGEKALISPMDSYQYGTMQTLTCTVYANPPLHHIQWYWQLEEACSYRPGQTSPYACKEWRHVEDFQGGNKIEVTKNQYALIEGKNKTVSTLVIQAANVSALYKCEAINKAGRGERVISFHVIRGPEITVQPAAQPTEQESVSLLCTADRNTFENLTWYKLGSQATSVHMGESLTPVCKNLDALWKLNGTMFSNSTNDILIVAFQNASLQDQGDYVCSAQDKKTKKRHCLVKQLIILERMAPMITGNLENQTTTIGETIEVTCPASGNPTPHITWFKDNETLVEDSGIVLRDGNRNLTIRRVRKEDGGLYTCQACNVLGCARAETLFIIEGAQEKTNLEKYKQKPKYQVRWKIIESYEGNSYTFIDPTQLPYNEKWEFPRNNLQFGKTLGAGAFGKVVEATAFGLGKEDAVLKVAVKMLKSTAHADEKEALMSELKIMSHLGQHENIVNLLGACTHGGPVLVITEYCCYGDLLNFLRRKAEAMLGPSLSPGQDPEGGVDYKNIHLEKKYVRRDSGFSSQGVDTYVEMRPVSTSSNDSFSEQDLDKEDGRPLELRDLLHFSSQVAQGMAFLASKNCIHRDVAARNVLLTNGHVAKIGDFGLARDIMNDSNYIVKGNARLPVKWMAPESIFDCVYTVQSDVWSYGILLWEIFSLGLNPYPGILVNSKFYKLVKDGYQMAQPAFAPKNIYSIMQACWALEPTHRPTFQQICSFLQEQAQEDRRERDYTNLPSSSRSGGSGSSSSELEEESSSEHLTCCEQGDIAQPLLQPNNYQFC
# Sequence of human KDR (VEGFR-2), immobilized on ELISA plates (construct not stated) (human) (P35968 20-764 limits assumed): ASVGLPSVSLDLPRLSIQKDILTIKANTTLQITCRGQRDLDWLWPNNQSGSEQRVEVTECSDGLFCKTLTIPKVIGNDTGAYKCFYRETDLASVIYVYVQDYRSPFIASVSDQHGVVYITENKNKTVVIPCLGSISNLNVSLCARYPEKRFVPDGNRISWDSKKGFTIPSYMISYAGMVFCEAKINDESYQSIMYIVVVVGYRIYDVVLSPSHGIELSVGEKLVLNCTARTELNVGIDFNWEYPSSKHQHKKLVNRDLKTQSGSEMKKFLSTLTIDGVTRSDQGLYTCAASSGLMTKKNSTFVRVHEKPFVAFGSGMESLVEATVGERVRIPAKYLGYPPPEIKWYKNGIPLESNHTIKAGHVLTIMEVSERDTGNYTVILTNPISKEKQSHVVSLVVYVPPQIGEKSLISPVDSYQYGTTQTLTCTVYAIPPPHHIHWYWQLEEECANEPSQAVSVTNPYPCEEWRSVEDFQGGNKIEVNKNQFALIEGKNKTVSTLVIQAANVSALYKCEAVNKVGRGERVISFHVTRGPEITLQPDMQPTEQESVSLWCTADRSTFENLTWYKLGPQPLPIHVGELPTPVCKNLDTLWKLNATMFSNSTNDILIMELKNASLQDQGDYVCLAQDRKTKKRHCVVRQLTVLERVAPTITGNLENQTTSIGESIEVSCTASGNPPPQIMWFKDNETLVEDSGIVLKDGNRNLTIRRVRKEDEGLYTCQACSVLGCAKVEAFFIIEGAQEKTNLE
# Sequence of KDR (VEGFR-2) expressed on the surface of HUVEC (human) (P35968 20-1356): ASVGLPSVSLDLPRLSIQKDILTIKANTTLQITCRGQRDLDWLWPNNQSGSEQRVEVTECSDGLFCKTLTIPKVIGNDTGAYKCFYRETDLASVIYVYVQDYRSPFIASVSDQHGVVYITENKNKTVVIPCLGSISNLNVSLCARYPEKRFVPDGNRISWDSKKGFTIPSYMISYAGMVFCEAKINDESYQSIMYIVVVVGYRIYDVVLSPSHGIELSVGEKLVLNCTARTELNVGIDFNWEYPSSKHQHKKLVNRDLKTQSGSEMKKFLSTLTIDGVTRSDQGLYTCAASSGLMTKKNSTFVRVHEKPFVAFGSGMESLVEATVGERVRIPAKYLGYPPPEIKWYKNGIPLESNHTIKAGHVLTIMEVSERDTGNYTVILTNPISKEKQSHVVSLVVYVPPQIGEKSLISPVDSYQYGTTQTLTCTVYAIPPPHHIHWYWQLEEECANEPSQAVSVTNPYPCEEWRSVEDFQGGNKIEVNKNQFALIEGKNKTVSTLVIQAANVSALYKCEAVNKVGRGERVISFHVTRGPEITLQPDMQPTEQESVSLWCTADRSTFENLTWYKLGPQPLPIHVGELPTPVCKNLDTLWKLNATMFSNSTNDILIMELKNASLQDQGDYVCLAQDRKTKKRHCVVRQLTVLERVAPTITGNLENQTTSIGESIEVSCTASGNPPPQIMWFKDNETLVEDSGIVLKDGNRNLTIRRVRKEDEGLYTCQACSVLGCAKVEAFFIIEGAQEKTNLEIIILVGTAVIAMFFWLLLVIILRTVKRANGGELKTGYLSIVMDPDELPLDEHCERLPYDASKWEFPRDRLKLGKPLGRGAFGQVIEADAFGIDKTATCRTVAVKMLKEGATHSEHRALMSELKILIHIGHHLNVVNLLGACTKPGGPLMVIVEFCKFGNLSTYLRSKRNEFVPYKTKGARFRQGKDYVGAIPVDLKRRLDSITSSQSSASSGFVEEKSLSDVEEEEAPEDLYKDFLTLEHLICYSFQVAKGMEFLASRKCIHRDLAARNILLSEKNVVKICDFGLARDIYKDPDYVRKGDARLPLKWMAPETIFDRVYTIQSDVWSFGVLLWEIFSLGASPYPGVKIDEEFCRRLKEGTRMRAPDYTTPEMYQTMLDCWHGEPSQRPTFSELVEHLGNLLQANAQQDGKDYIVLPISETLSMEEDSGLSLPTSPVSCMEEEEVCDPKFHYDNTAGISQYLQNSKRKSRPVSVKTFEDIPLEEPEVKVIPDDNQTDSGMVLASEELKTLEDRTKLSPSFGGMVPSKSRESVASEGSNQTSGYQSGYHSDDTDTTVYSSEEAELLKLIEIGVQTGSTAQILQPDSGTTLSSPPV
Binder,EC50 of inhibition of VEGF induced DNA synthesis ([3H]-TdR) in HUVEC [1] [nM],antibody concentration required to inhibit 50% of VEGF-induced mitogenesis of HUVEC [1] [nM],Kd [2] [nM],koff [2] [s⁻¹],kon [2] [M⁻¹ s⁻¹],koff [3] [s⁻¹],kon [3] [M⁻¹ s⁻¹],IC50 [4] [nM],IC50 [5] [nM],EC50 [6] [nM],EC50 (read off the curve) [7] [nM],"phosphorylation of flk-1 (VEGFR-2) by VEGF165 (40 ng/ml), antibody titration [8]","phosphorylation level by densitometry, antibody added with ligand (C) [8, 10]","phosphorylation level by densitometry, antibody prebound (P) [8, 10]",relative apparent affinity [9] [ng/mL]
B1,5,6,2.1,0.00023,110000,0.000227,111000,2,3,0.3,1,–,–,–,–
B2,–,–,–,–,–,–,–,–,–,–,–,> 0.5 µg/mL and < 1 µg/mL,40,6,500
